Article PMC1847435, “Structural investigations of the ferredoxin and terminal oxygenase components of the biphenyl 2,3-dioxygenase from Sphingobium yanoikuyae B1” (BMC Structural Biology, 2007)

B1: Biphenyl 2,3-dioxygenase from Sphingobium yanoikuyae strain B1, terminal oxygenase α subunit (enzyme)
chain: MSSDATLVDTVNASQSRQVFWDEDVYALEIERIFSRAWLMLGHESLVPKPGDFITTYMAEDKVILSHQSDGTFRAFINSCSHRGNQICHADSGNAKAFVCNYHGWVFGQDGSLVDVPLESRCYHNSLDKQKLAAKSVRVETYKGFIFGCHDPEAPSLEDYLGEFRYYLDTIWEGAGGGMELLGPPMKSLLQCNWKVPAENFIGDGYHVGWTHAAALSQIGGELAGLAGNRADIPFDDLGLQFTTRHGHGFGVIDNAAAGLHIKREGWTKFLEDTRGEVRRKFGPERERLYLGHWNCSIFPNCSFLYGTNTFKIWHPRGPHEIEVWTYTIVPRDADPATKSMIQREAIRTFGTAGTLESDDGENMSSATYINRGVITRNGRMNSTMGVGYEGPHPVYPGIVGISFIGETSYRGFYRFWKEMIDAPDWASVKANDDTWDSVFPNRNFWNEKLNAAE
notes: α subunit of biphenyl 2,3-dioxygenase (BPDO-OB1), Sphingobium yanoikuyae B1, encoded by bphA1f; the α subunit consists of 454 residues; residues 6-454 modelled in the structure; Co-expressed with the β subunit (bphA1fA2f in one vector); also called BPDO-OB1 α subunit; source: cloned from B1 into pET101D, expressed as described in Yu et al. [45], purified

How the values were obtained:
[1] = biological target: the molecule itself; test: crystal structure; purified BPDO-OB1 at 20 mg/ml in 20 mM potassium phosphate pH 6.8; space group P3(1)21, complete α3β3 in the asymmetric unit; native (1.70 Å) and biphenyl-soaked crystals
[2] = biological target: B1; test: as above; details: both partners purified

| Binder | stoichiometry N [1] | binding result [2] |
| --- | --- | --- |
| B1 | 3 | – |
| Biphenyl 2,3-dioxygenase from Sphingobium yanoikuyae strain B1, terminal oxygenase β subunit (enzyme, β subunit of biphenyl 2,3-dioxygenase (BPDO-OB1), Sphingobium yanoikuyae B1, encoded by bphA2f; residues 5-174 modelled in the structure; Co-expressed with the α subunit (bphA1fA2f in one vector); also called BPDO-OB1 β subunit; source: cloned from B1 into pET101D, expressed as described in Yu et al. [45], purified) MSSEQIPVTPDVHYDIEAHYRAEVRMFQTGQYREWLQGMVAEDIHYWMPIYEQRLTRDRRPDPTPDDAAIYNDDFGELKQRVERLYSGQVWMEDPPSKIRYFVSNVEAFEAGNGELDVLSNILVYRNRRQTEVTVHTLGREDKLRRDGNGFKVFRRKLILDARVTQDKNLYFFC | 3 | binds |
